The record followed here is the DeepSol protein solubility set.

The data set in a line: soluble on expression in E. coli; label from the status in PepcDB or PDB records.
For the sequence “MSAFYQIFHDTHYKYDTPVSLAQQLAHLWPRSSPWQRCTEQALEIFPAPTTRRDELDVFGNPLTRLAFERPHDELQVNARLRIEVLERPQLDFNLSPEWEVTRNALTYSAKPMTEDILEACRYRFESPYVHLKRSFVEFSQDCFPVGRPLLLGVQALMEKIFDEFTFDEEATQVATPLVEVLESRRGVCQDFAHLMLACLRSRGLAARYVSGYLLTQPPPGQPRLIGADASHAWVSVFCPASGWVDFDPTNNVQPALEHISLAWGRDFSDVSPLRGVILGGGSHDPDVRVTVMPVSA”, the “soluble on expression in E. coli” value is given as “not soluble”.

Turning to “MSAIPAEESDQLLIRPLGAGQEVGRSCIILEFKGRKIMLDCGIHPGLEGMDALPYIDLIDPAEIDLLLISHFHLDHCGALPWFLQKTSFKGRTFMTHATKAIYRWLLSDYVKVSNISADDMLYTETDLEESMDKIETINFHEVKEVAGIKFWCYHAGHVLGAAMFMIEIAGVKLLYTGDFSRQEDRHLMAAEIPNIKPDILIIESTYGTHIHEKREEREARFCNTVHDIVNRGGRGLIPVFALGRAQELLLILDEYWQNHPELHDIPIYYASSLAKKCMAVYQTYVNAMNDKIRKQININNPFVFKHISNLKSMDHFDDIGPSVVMASPGMMQSGLSRELFESWCTDKRNGVIIAGYCVEGTLAKHIMSEPEEITTMSGQKLPLKMSVDYISFSAHTDYQQTSEFIRALKPPHVILVHGEQNEMARLKAALIREYEDNDEVHIEVHNPRNTEAVTLNFR”, the “soluble on expression in E. coli” value is “soluble”.

For the sequence “MSALTPPTDMPTPTTDKITQAAMETIYLCKFRVSMDGEWLCLRELDDISLTPDPEPTHEDSWEDLTDLVEQVRADPEDPNYLMANERMNLMNMAKLSIKGLIESALNLGRTLDSDYAPLQQFFVVMEHCLKHGLKAKKTFLGQNKSFWGPLELVEKLVPEAAEITASVKDLPGLKTPVGRGRAWLRLALMQKKLSEYMKALINKKELLSEFYEVNALMMEEEGAIIAGLLVGLNVIDANFCMKGEDLDSQVGVIDFSMYLKDGNSSKGSEGDGQITAILDQKNYVEELNRHLNATVNNLQTKVDLLEKSNTKLTEELAVANNRIITLQEEMERVKEESSYLLESNRKGPKKTELQKGKR”, the “soluble on expression in E. coli” value is “soluble”.

Turning to “MSAMKKLVVLGGGYGGMRILQRLLPNDLPSDWEITLVDRLPYHCLKTEYYALAAGTASDHHLRVSFPEDPRLSTRYGSVSSIDLASKTVLFEEGEPLTYDTLIIGLGCEDKYHGVPGAKEHTYSIQSMEATRRTYEALNNVRPEGVVTIVGAGLSGVELASELRESRPDLTIKLLDRGDIILSMFPRRLSNYVQNWFIDHGVDIINKSNVTKVEEGAVYNHDERIESDAIIWTAGLEHHHHHH”, the “soluble on expression in E. coli” value is on record as “soluble”.

Take “MSASETRSKVLTDESTGSTAIEESPRNRQNEEPEQTSQTENLQTDPFNARISEIFEKQTVAFERQMMIKEEEFMSQMKEREEVKLKDLETKLENFEKWRKEIRLEGAKELNIKLHSEPEVSAELEHEGGLQEK”: the “soluble on expression in E. coli” value was “not soluble”.

Turning to “MSATRHRSDGHEEIVALDALPLSAAIRRRELSCREVMQAYLAQIERFNPRVNAIVSLQAESRLLTQADERDRQLARGEWLGWMHGMPQAIKDLAATSGIPTTLGSPLFAGQVPEHDAIVVERVKSSGAIVIGKTNVPEFGLGSQTYNPLFGTTRNAYDPARIAGGSSGGAAVALALRMLPVADGSDMMGSLRNPAAYNNVYGFRPSQGRVPHGPQAELFVQQLATEGPMGRSVADLARLLATQAGYDPRCPLSLRDDPRRFADDLGRDFRGARLGWLGDYAGYLPMEEGVLELCEAALGDFAELGCDVEACLPDYPLERLWRTWLVHRQWLVQGSLGELYADPARRVRLKPEAQWEVESGLGLGAAEVYRASLDRSDWYRALARLFERYDFLLLPSAQVFPFDAETAWPRQVAGRPMDTYHRWMEVVIGPTLAGLPAISVPIGFGAAGLPMGLQIIGPAQADLAVLQLAHAHEGLTRWVSRRPPAMLEAPGGI”, the “soluble on expression in E. coli” value was “not soluble”.

As for “MSATTTNLKEAIVNRRSIRKVTKNDAITKERIEEVLKTALHAPTSFNMQSGRMVVLMDGEHEKFWDIVKETLRARVPAENFEATVERLKGFHAGVGTVLFFEDQATVEKMQENAPLYKDQFPFWSHQGNAMLQHTVWMLLSAEGIGASLQHYNPIVDAEVKETWNIPAEWSLVGQMPFGEPNEQPAERTFLPTEDVVKFY”, the “soluble on expression in E. coli” value is “soluble”.

Consider “MSDAMPLDQTLEQLTQDEWIDIPQGWSQGRTIYGGLVAGLLMHKALSVMNDESKNLLSTSITFVGPVNEGRVRLTVEILRQGKSVTTIEARLWQDQAVQTILIASFGQPRSLEHHHHHH”, for which the “soluble on expression in E. coli” value was “not soluble”.

In the case of “MSDAQGNTLTEEELAMLRAGDEENDNTDTIMVIRVPNDGSSATAVSIPRDTYIHDDDYGNMKINGVYGAYKDARRAELMEQGFTNESELETRAKDAGREGLIDAVSDLTGITVDHYAEVGLLGFVLLTDAVGGVEVCLNNAVDEPLSGANFPAGRQTLGGSDALSYVRQRHDLPRGDLDRIVRQQSYMASLVNQVLSSGTLTNPAKLSALADAVTRSVVIDEGWEIMSFATQLQNLAGGNVTFATIPVTSIDGTGDYGESVVTIDVNQVHAFFQEALGEAEPAPEDGSDDQSADQAPDLSEVEVHVLNASYVEGLANGIAAQLQELGYSIAETGNAAEGLYYESQILAAEEDSAKALAISEALGGLPIVANSSLDDNTVIVVSAGDYAGPTAEANALEHHHHHH”, the “soluble on expression in E. coli” value is “soluble”.

On to “MSDEAWKQTLICESINDKIGYWEYLAVTDKRRRSRNKAQSSGAENYKKVLEEQQRIYTAGGMGYGPEMYQVISNPMRNQKRVNNIEGSKIFAAMNSGAPRIALDIQYVEEMNKRDSGELGNQMQYTISENFSAKSPFVLDFVNSPSKEFLEQWLSKSVGYYTGNYINQTILPDFSTKGIKEFYGKSANTIYISSNARDVLDGPLTADVIGICVTMGRKREALSAARRANIRAYRLPIHRYVKWKSGPQYLPFPNIMNVLREVYMNGGDWSRALHNNISKRHLVNADDDEQKKMQMLRRRAREEERRELTEAIMSATKG”, for which the “soluble on expression in E. coli” value was “not soluble”.

Take “MSDEKKGGETEHINLKVLGQDNAVVQFKIKKHTPLRKLMNAYCDRAGLSMQVVRFRFDGQPINENDTPTSLEMEEGDTIEVYQQQTGG”: the “soluble on expression in E. coli” value is given as “soluble”.

Regarding “MSDITISRPEVVNGHTDVICSTSIRHILAVRKSTLLQIDTLIRQLAEISVLTESIGGKTAPDWAMKQDFRCGCWLMEKPETAMKAITRNLDREIWRDLMQRSGMLSLMDTQARDTWYRSLEYDNFPEISEANILSTFEQLHQNKDEVFERGVINVFRGLNWNYKTNCPCKFGSKIIVNNLVRWDRWGFHLITGQQADRLADLERMLHLFSGKPIPDNRGNITLRLDDHIQSVQGKESYEDEMFSIRYFKKGSAHITFRKPELVDRLNDIIAKHYPDMLAV”, the “soluble on expression in E. coli” value is given as “soluble”.

For “MSDITTKSTKQTESLVCGEFKALGPAPYYVGDEIIVMRCAETINEIFSDWTKRANLDENKYTPFDVNAPIELPRRTDMLKSYNLDPPINETGKIASKMIARELCDRHAIPSVIFCSPDFASVETAHLIKSYIGEKCGAIRIEPELSTLHKSAHVFFGPNHFTSLGYGIDEKNPLHAVSDGVSLSDLVNRIKRAFYELTSKVDNALIIVDSLSMMIISSLFHNVYIRNDSSVDLERLRSLASFPSLSNFTAYRVGGQTGVKTYDLTSTCLRPLTFTGFSNEIDLE”, the “soluble on expression in E. coli” value is reported as “not soluble”.

Regarding “MSDKHINLVIVTGMSGAGKTVAIQSFEDLGYFTIDNMPPALVPKFLELIEQTNENRRVALVVDMRSRLFFKEINSTLDSIESNPSIDFRILFLDATDGELVSRYKETRRSHPLAADGRVLDGIRLERELLSPLKSMSQHVVDTTKLTPRQLRKTISDQFSEGSNQASFRIEVMSFGFKYGLPLDADLVFDVRFLPNPYYQVELREKTGLDEDVFNYVMSHPESEVFYKHLLNLIVPILPAYQKEGKSVLTVAIGCTGGQHRSVAFAHCLAESLATDWSVNESHRDQNRRKETVNRS”, the “soluble on expression in E. coli” value was “not soluble”.
